Target: F-ATPase from Paracoccus denitrificans (nine core subunits α, β, γ, δ, ε, a, b, b' and c) (Paracoccus denitrificans (strain PD1222)) (UniProt A1B8N8)
Assay: reverse-phase LC-MS of the subunits of the purified complex; subunits of F-ATPase I fractionated by reverse-phase chromatography, online electrospray MS; amounts estimated from peak areas of the ion traces, ζ against the δ-subunit

UniProt A1B8N8, sequence (A1B8N8 whole entry, looked up, stated change not applied, tested part not stated): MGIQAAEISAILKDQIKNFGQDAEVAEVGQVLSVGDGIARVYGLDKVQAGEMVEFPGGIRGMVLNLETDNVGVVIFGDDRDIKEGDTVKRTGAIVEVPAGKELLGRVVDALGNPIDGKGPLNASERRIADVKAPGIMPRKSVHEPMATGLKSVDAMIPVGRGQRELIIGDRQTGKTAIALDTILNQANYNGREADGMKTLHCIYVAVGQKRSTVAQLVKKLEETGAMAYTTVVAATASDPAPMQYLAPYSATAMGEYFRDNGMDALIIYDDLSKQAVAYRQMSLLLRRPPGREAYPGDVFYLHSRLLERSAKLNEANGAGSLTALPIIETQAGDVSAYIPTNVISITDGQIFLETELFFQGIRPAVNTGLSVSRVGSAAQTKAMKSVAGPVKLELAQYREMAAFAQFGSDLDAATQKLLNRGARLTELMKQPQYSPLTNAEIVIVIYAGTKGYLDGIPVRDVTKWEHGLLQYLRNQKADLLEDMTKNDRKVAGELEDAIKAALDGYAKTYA

“ζ inhibitor protein of the F-ATPase from Paracoccus denitrificans (natural protein)” showed a stoichiometry N (ζ-protein per F-ATPase complex) of 1.
